Assay results published in PMC12700558, “Aggregation shifts amyloid-β peptides from synaptogenic to synaptotoxic” (The Journal of Clinical Investigation, 2025).

Columns and labels:
[1] = test system: human neurons; test: Quantification of synaptic puncta (Synapsin-1 and PSD95), confocal; type: cell-based; settings: chronic treatment, DIV45
Description: Mature human iN cells were washed 3 times with PBS (Gibco) and fixed with 4% PFA (Electron Microscopy Science) and 4% sucrose (Sigma-Aldrich) in PBS for 10 minutes at room temperature. Cells were then washed three times with PBS, followed by permeabilization and blocking with 0.25% Triton-X-100 (Sigma-Aldrich), 2.5% bovine serum albumin (BSA) (GeminiBio) and 2,5% NGS (Sigma-Aldrich) for one hour at room temperature. Incubation with primary antibodies was performed overnight at 4°C in the corresponding blocking buffer ([41]). For endosome analyses, fixing solution contained only 4% PFA and the permeabilization was performed separately before the blocking step, using 0.1% Triton-X-100. Primary Antibodies used include rabbit monoclonal anti-Synapsin-1 (Yenzym antibodies, clone YZ6078, 1:1000 dilution), mouse monoclonal anti-PSD95 (Thermo Fisher Scientific, 7E3-1B8, 1:250 dilution), chicken polyclonal anti-MAP2 (EnCor, CPCA-MAP2, 1:1000 dilution), mouse monoclonal 6E10 (BioLegend, SIG-39320, 1:1000), rabbit monoclonal anti-Synaptophysin (homemade, P580 ([26])), and rabbit monoclonal anti-EEA1(Cell Signaling, C45B10, 1:1000 dilution). Cells were washed 3 times with PBS and incubated for 1 hour at room temperature with Alexa conjugated secondary antibodies: goat anti-chicken Alexa 647, goat anti-rabbit Alexa 546, goat anti-rabbit Alexa 488, and goat anti-mouse Alexa 488, all 1:500. […]

[2] = test system: human neurons cocultured with mouse glia (entire glia/neuron coculture)
Description: (§1) The MTT assay employs yellow tetrazolium dye that is reduced to a purple formazan crystal by viable cells with active metabolism ([21]). Because it measures metabolic activity in all cells, this assay serves as a broad cytotoxicity read out for the entire glia/neuron coculture system. The amount of formazan produced is then measured because it is directly proportional to the number of viable cells ([21]) (Figure 1B and Supplemental Figure 1A). The nuclear localization TdTomato assay, conversely, enables monitoring of cellular stress by tracking the localization of fluorescent TdTomato fused to a nuclear localization signal. Under healthy conditions, the nuclear localization signal directs the NLS-TdTomato to the nucleus. When toxicity in a cell causes a reduction in ATP levels, NLS-TdTomato leaks out of the nucleus into the cytoplasm, which we scored as an index of toxicity (Figure 1, C and D, and Supplemental Figure 1, B–D). Because the reporter is expressed only in neurons, this assay specifically assesses neurotoxicity within the coculture. We developed this assay because it can be performed on live cells and reflects decreases in ATP levels in these cells. The NLS-TdTomato assay was validated by treating cultures with 5% DMSO and 200 μM hydrogen peroxide, 2 well-established neurotoxins. […]

[3] = test system: human neurons cocultured with mouse glia; settings: chronic exposure DIV6-DIV45, neurotoxic doses
Description: The Incucyte Cytotox Green assay, finally, monitors membrane integrity using a DNA dye that gains access to nuclei only when the plasma membrane is compromised (Supplemental Figure 1, F and G).
To obtain a live cell read out of neuronal death, we monitored loss of plasma-membrane integrity with Incucyte Cytotox Green reagent (Sartorius), a cell-impermeant DNA dye that fluoresces upon binding to nuclear DNA once the membrane is breached ([48]). A 250× stock supplied by the manufacturer was thawed on ice and diluted into prewarmed culture medium to a final working concentration of 250 nM immediately before use. For each assay plate, half the medium was removed and replaced with dye-containing medium so that the final dye concentration and vehicle composition were identical across all conditions. For validation, DIV30 cocultures were challenged for 4 hours with 200 μM H2O2; fluorescence images were acquired immediately thereafter. […] Dye was present for 2 hours before imaging to allow equilibrium without inducing additional stress. Ten nonoverlapping fields per well were captured with the 20× objective using green fluorescence channels. Exposure settings were kept constant within an experiment. Images were processed with ImageJ. A top-hat background subtraction was applied to the green channel, and a fluorescence threshold was kept constant across batches. […]

[4] = test system: human neurons; test: NLS-TdTomato cytotoxicity assay (cytoplasmic leakage of NLS-TdTomato)
Description: as §1, with “cells.” for “cells. The NLS-TdTomato assay was validated by treating cultures with 5% DMSO and 200 μM hydrogen peroxide, 2 well-established neurotoxins.”
To assess neuronal cytotoxicity induced by Aβ peptides, we employed a novel Td-Tomato cytotoxicity assay that we developed. […] Neurons displaying cytoplasmic Td-Tomato were counted as indicators of cytotoxicity. […]

-.DAEFRHDSGYEVHHQKLVFFAGDVGSNKGAIIGLMVGGVVI.A [Aβ42^arctic]
Loss of synapses ([1]; high concentrations): greater than 55%
Effect on synapse numbers (in words) ([1]; lower concentrations): did not increase synapse numbers
Concentration at which neurotoxic, MTT assay [2]: greater than or equal to 0.025 μM
Incucyte Cytotox Green assay, labeled nuclei (in words) [3]: modest but consistent rise in labeled nuclei
Concentration at which neurotoxicity became apparent, NLS-TdTomato assay [4]: greater than or equal to 0.1 μM
